Data on 1 substance can be found in patent publication US20240003881A1.

By Kd is commonly meant a measure of binding affinity in units of concentration. Read a high Kd as weaker binding.

Test [1] deals with β10-S-β10 (SARS-CoV-2) (UniProt P0DTC2). Description: tNLuc assay (β9-G/β10-S-β10); CR3022 dose response with 0-100 µg/mL human IgG, allosteric noncompetitive inhibition model.
Test [2] has the same target. Nature of the test: tNLuc split-luciferase assay in solution with β9-G; CR3022 dose response, allosteric sigmoidal fit.
Test [3] deals with β10-S (SARS-CoV-2) (UniProt P0DTC2). The test is described as above.

Consider CR3022 (antibody), for which the equilibrium dissociation constant (Kd) was 0.22 µg/mL in test [1], 0.23 µg/mL in test [2] and 0.42 µg/mL in test [3].
